Blank lines part the entries; values can stand above or below the binder they belong to. Bridge positions count the residues as written; N and C are the ends. Ends that are not written are not given here. * marks the point of attachment. Biotin = O=C1N[C@H]2[C@H](CS[C@H]2CCCCC(=O)*)N1
T1: FMC63 Mimotope Mutant RLCPWSAACREL
T1 construct: also called G9 with two alanines inserted between the cysteines
T1 peptide: RLCPWSAACREL

T2: FMC63 Mimotope Mutant RLCPWSACREL
T2 construct: also called G9 with one alanine inserted between the cysteines
T2 peptide: RLCPWSACREL

T3: FMC63 Mimotope Mutant RACPWSCREL
T3 construct: also called G9 X1 (Leu 2) to Ala
T3 peptide: RACPWSCREL

T4: FMC63 Mimotope Mutant RLCPWSCREA
T4 construct: also called G9 X5 (Leu 10) to Ala
T4 peptide: RLCPWSCREA

T5: FMC63 Mimotope (G9) RLCPWSCREL
T5 construct: Parent of the alanine scan
T5 peptide: RLCPWSCREL

T6: FMC63 Mimotope Mutant RLCPWACREL
T6 construct: also called G9 X2 (Ser 6) to Ala
T6 peptide: RLCPWACREL

T7: FMC63 Mimotope Mutant RLCPWSCRAL
T7 construct: also called G9 X4 (Glu 9) to Ala
T7 peptide: RLCPWSCRAL

T8: FMC63 Mimotope Mutant RLCPWSCAEL
T8 construct: also called G9 X3 (Arg 8) to Ala
T8 peptide: RLCPWSCAEL

T9: FMC63 Mimotope (B7) RICPWSCMVV
T9 peptide: RICPWSCMVV

T10: FMC63 Mimotope (H11) RICPWSCREL
T10 peptide: RICPWSCREL

T11: FMC63 Mimotope (C7) RLCPWACQEQ
T11 peptide: RLCPWACQEQ

T12: FMC63 Mimotope (E6) RLCPWSCVPI
T12 peptide: RLCPWSCVPI

T13: FMC63 Mimotope (F12) RICPWNCKEL
T13 construct: also called F12 mimotope
T13 peptide: RICPWNCKEL

T14: FMC63 Mimotope (F8) RLCPWDCREL
T14 peptide: RLCPWDCREL

T15: FMC63 Mimotope (C5) RMCPWSCYEL
T15 peptide: RMCPWSCYEL

T16: FMC63 Mimotope (G11) RLCPWNCREL
T16 peptide: RLCPWNCREL

T17: FMC63 Mimotope (H1) RVCPWSCMPI
T17 construct: Not the 1D3 mimotope that is also called H1
T17 peptide: RVCPWSCMPI

T18: FMC63 Mimotope (H8) RICPWACVEL
T18 peptide: RICPWACVEL

T19: biotinylated F12 derivative GGGGSGGGGSGGGGSASRICPWNCKEL (not fully specified; biotinylated on the N-terminus)
T19 construct: Free peptide loaded on a streptavidin coated plate for ELISA
T19 peptide: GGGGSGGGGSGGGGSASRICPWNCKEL

T20: biotinylated F12 mimotope RICPWNCKEL (no flanking residues) (not fully specified (bridges); cysteine pairing not given here)
T20 construct: Free peptide loaded on a streptavidin coated plate for ELISA; also called Bio-F12; F12 without flanking residues
T20 peptide: Biotin-RICPWNCKEL

T21: biotinylated F12 derivative GGGSASRICPWNCKEL (not fully specified (bridges); cysteine pairing not given here)
T21 construct: Free peptide loaded on a streptavidin coated plate for ELISA
T21 peptide: Biotin-GGGSASRICPWNCKEL

T22: biotinylated F12 derivative SASRICPWNCKEL (not fully specified (bridges); cysteine pairing not given here)
T22 construct: Free peptide loaded on a streptavidin coated plate for ELISA
T22 peptide: Biotin-SASRICPWNCKEL

T23: biotinylated F12 derivative GSGGGGSGGGGSASRICPWNCKEL (not fully specified; biotinylated on the N-terminus)
T23 construct: Free peptide loaded on a streptavidin coated plate for ELISA
T23 peptide: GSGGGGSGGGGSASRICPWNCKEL

T24: biotinylated F12 derivative GGSGGGGSASRICPWNCKEL (not fully specified; biotinylated on the N-terminus)
T24 construct: Free peptide loaded on a streptavidin coated plate for ELISA
T24 peptide: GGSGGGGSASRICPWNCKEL

B1: FMC63 IgG (antibody, V domains shown)
VH: EVKLQESGPGLVAPSQSLSVTCTVSGVSLPDYGVSWIRQPPRKGLEWLGVIWGSETTYYNSALKSRLTIIKDNSKSQVFLKMNSLQTDDTAIYYCAKHYYYGGSYAMDYWGQGTSVTVSS
VL: DIQMTQTTSSLSASLGDRVTISCRASQDISKYLNWYQQKPDGTVKLLIYHTSRLHSGVPSRFSGSGSGTDYSLTISNLEQEDIATYFCQQGNTLPYTFGGGTKLEIT
notes: Murine monoclonal antibody to human CD19; also called FMC63 IgG antibody; biotinylated FMC63 IgG

Key:
[1] = biological target: B1; experiment: ELISA with FMC63 IgG; ELISA with FMC63 IgG (FIG. 7); micromolar range
[2] = biological target: T1, FMC63 Mimotope Mutant RLCPWSAACREL; experiment: flow cytometry of yeast clones stained with FMC63 IgG; stacked histograms, no unstained control drawn
Procedure: (§1) Specifically, a representative mimotope, […] […] To generate mutations, two complementary oligos with the codon replaced at the desired site were denatured at 95° C. and annealed by slow cooling to 25° C. (decreasing by 0.5° C./second). The annealed oligos were treated with T4 PNK (T4 Polynucleotide Kinase) to add a terminal phosphate, and then ligated into digested pCT-CON2 vector. Positive clones having the correct oligo inserted were tested and transformed into competent EBY100 yeast cells.

[3] = biological target: T2, FMC63 Mimotope Mutant RLCPWSACREL; experiment: as above
Procedure: as §1

[4] = biological target: T3, FMC63 Mimotope Mutant RACPWSCREL; experiment: flow cytometry of yeast clones stained with FMC63 IgG (5 µM by paragraph 811); stacked histograms, no unstained control drawn
Procedure: as §1

[5] = biological target: T4, FMC63 Mimotope Mutant RLCPWSCREA; experiment: as above
Procedure: as §1

[6] = biological target: T5, FMC63 Mimotope (G9) RLCPWSCREL; experiment: as above
Procedure: as §1

[7] = biological target: T6, FMC63 Mimotope Mutant RLCPWACREL; experiment: as above
Procedure: as §1

[8] = biological target: T7, FMC63 Mimotope Mutant RLCPWSCRAL; experiment: as above
Procedure: as §1

[9] = biological target: T8, FMC63 Mimotope Mutant RLCPWSCAEL; experiment: as above
Procedure: as §1

[10] = biological target: T9, FMC63 Mimotope (B7) RICPWSCMVV; experiment: flow cytometry of yeast clones titrated with biotinylated FMC63 IgG, MFI (geometric mean); axis without unit, nM by the legend paragraph 211
[11] = biological target: T10, FMC63 Mimotope (H11) RICPWSCREL; experiment: as above
[12] = biological target: T11, FMC63 Mimotope (C7) RLCPWACQEQ; experiment: as above
[13] = biological target: T12, FMC63 Mimotope (E6) RLCPWSCVPI; experiment: as above
[14] = biological target: T13, FMC63 Mimotope (F12) RICPWNCKEL; experiment: as above
[15] = biological target: T14, FMC63 Mimotope (F8) RLCPWDCREL; experiment: as above
[16] = biological target: T15, FMC63 Mimotope (C5) RMCPWSCYEL; experiment: as above
[17] = biological target: T16, FMC63 Mimotope (G11) RLCPWNCREL; experiment: as above
[18] = biological target: T17, FMC63 Mimotope (H1) RVCPWSCMPI; experiment: as above
[19] = biological target: T18, FMC63 Mimotope (H8) RICPWACVEL; experiment: as above
[20] = biological target: T19, biotinylated F12 derivative …; experiment: ELISA, biotinylated peptide on a streptavidin plate, OD(450nm) against the FMC63 IgG concentration (nM)
[21] = biological target: T20, biotinylated F12 mimotope RICPWNCKEL …; experiment: as above
[22] = biological target: T21, biotinylated F12 derivative …; experiment: as above
[23] = biological target: T22, biotinylated F12 derivative …; experiment: as above
[24] = biological target: T23, biotinylated F12 derivative …; experiment: as above
[25] = biological target: T24, biotinylated F12 derivative …; experiment: as above

Kd [1]: ~1400 nM
Binder: RHCPWNCSLL (disulfide 3-7 (inferred), Aga2p-HA-(G4S)3-AS-peptide, cf) [FMC63 Mimotope (A1) RHCPWNCSLL]

Binder: B1
binding result [2]: no binding | binding result [3]: no binding | binding result [4]: binds | binding result [5]: binds | binding result [6]: binds | binding result [7]: binds | binding result [8]: binds | binding result [9]: binds | binding result [10]: binds | binding result [11]: binds | binding result [12]: binds | binding result [13]: binds | binding result [14]: binds | binding result [15]: binds | binding result [16]: binds | binding result [17]: binds | binding result [18]: binds | binding result [19]: binds | binding result [20]: binds | binding result [21]: binds | binding result [22]: binds | binding result [23]: binds | binding result [24]: binds | binding result [25]: binds
